{
  "source": "patent US11866731",
  "binders": {"B1": {"name": "chimeric antigen receptor targeting B cell surface protein (BCAR), CD19 CAR (protein, part only; not given: transmembrane and signaling domains, part only)", "chain, part": "DIVLTQSPASLAMSLQLGWRPGWFLDSPDRVIGAHLIHWYQQKPGQPPKLLIYLASNLETGVPARFSGSGSGTDFTLTIDPVEEDDVAIYSCLQSRIFPRTFGGGTKLEIKGGGGSGGGGSGGGGSQIQLVQSGPELKKPGETVKISCKASGYTFTDYSINWVKRAPGKGLKWMGWINTETREPAYAYDFRGRFAFSLETSASTAYLQINNLKYEDTATYFCALDYSYAMDYWGQGTSVTVSS"}},
  "key": {"[1]": {"target": "CD19 (B cell surface protein) on B cells (UniProt P15391)", "sequence (P15391 20-556 limits assumed)": "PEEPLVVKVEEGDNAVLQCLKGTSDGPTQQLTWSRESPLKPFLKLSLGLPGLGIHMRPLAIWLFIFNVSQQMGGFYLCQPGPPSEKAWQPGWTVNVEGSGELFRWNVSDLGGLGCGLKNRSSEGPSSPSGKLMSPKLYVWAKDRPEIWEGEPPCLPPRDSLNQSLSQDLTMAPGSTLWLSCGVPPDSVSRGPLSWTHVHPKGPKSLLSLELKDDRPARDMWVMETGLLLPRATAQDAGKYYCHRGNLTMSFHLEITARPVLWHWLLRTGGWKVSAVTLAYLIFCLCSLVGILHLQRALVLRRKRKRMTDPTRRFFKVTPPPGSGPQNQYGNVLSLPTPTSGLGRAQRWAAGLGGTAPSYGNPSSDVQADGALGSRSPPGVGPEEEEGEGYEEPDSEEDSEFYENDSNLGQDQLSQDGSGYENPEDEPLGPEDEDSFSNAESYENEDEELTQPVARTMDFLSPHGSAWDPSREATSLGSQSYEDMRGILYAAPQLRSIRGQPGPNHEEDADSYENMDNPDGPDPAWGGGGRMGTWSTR", "experiment": "cell-based or functional assay"}, "[2]": {"target": "CD19 (B cell surface protein) on B cells (UniProt P15391)", "experiment": "cell-based or functional assay", "remark": "listed apart in the source"}},
  "note": "Several values for one entry are separate records, joined by “and”; a condition that tells them apart may be missing. Equal entries are not always repeated. Where two headings read alike, the source gives them in different places.",
  "data": [
    {"binder": "B1", "values": [
      {"measurement": "Expansion of T cells (fold, after 4 days of co-culture with B cells and J82-NY-ESO-1-Luc cells)", "setting": "[1]", "result": "12 fold and 27 fold"},
      {"measurement": "Expansion of T cells (fold, after 96 hours of co-culture with tumor cells and B cells)", "setting": "[1]", "result": 25, "unit": "fold"},
      {"measurement": "Killing of J82-NY ESO1 tumor cells by BCAR-TCR T (RTCA Cell Index), with against without B cells", "setting": "[1]", "result": 1000, "unit": "times"},
      {"measurement": "Expansion of T cells (fold, after 96 hours of co-culture with tumor cells and B cells)", "setting": "[2]", "result": 23, "unit": "fold"}
    ]}
  ]
}
